We go through 94 variants from the supplement of paper PMC10567573.

The labels stand for the following.
B1: FCHO1 (parent)
chain: FSDPSQSDPETKDFWLNMAALTEA
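Further: lentivirally expressed fusions sorted by FACS into six bins by GFP to DsRed ratio, PSI derived from sequencing read proportions per bin multiplied by bin number.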

This data set covers variants of B1. Kind of data set: protein stability index of a GFP-peptide fusion (GPS, HEK-293T) (PSI 1-6); higher = more stable. The note with it: c terminus: a fixed tail appended.
For FSDPSQSDPETKDGWLNMAALTEA [F14G], the protein stability index was 4.83.

FSDPSQSDPETKDMWLNMAALTEA [F14M]: the protein stability index came to 4.12.

Take FSDPSQSDPETKDDWLNMAALTEA [F14D]: the protein stability index came out at 4.88.

In the case of FSDPSQSDPETKDSWLNMAALTEA [F14S], the protein stability index came to 4.78.

Turning to FSDPSQSDPETKDKWLNMAALTEA [F14K], the protein stability index came out at 4.72.

Consider FSDPSQSDPETKDFWLNMAALGEA [T22G], for which the protein stability index was determined as 2.53.

Turning to FSDPSQSDPETKDFWLNMAALYEA [T22Y], the protein stability index worked out at 2.82.

In the case of FSDPSQSDPETKDFWLNMAALREA [T22R], the protein stability index was determined as 2.46.

For FSDPSQSDPETKDFWLNMAALEEA [T22E], the protein stability index stood at 3.66.

Take FSDPSQSDPETKDFWLNMAALLEA [T22L]: the protein stability index came to 2.82.

Regarding FSDPSQSDPETKDFWLNMAALKEA [T22K], the protein stability index amounted to 2.61.

Turning to FSDPSQSDPETKDFWLNMAALDEA [T22D], the protein stability index was 3.04.

In the case of FSDPSQSDPETKDFWLNMAALCEA [T22C], the protein stability index is 3.09.

Consider FSDPSQSDPETKDFWLNMAALPEA [T22P], for which the protein stability index amounted to 2.34.

Regarding FSDPSQSDPETKDFWLNMAALIEA [T22I], the protein stability index was 2.86.

On to FSDPSQSDPETKDFWLNMAALVEA [T22V], for which the protein stability index is 3.44.

On to FSDPKQSDPETKDFWLNMAALTEA [S5K], for which the protein stability index was found to be 2.94.

For FSDPEQSDPETKDFWLNMAALTEA [S5E], the protein stability index was determined as 4.46.

FSDPDQSDPETKDFWLNMAALTEA [S5D]: the protein stability index was 3.93.

For FSDPGQSDPETKDFWLNMAALTEA [S5G], the protein stability index stood at 2.66.

For FSDPPQSDPETKDFWLNMAALTEA [S5P], the protein stability index came out at 2.94.

For FSDPCQSDPETKDFWLNMAALTEA [S5C], the protein stability index was found to be 2.6.

FSDPNQSDPETKDFWLNMAALTEA [S5N]: the protein stability index stood at 2.79.

Regarding FSDPFQSDPETKDFWLNMAALTEA [S5F], the protein stability index was found to be 2.27.

As for FSDPIQSDPETKDFWLNMAALTEA [S5I], the protein stability index was 2.74.

As for FSDPYQSDPETKDFWLNMAALTEA [S5Y], the protein stability index is 2.45.

As for FSDPHQSDPETKDFWLNMAALTEA [S5H], the protein stability index worked out at 2.87.

Regarding FSDPSQSDPETKDFWLNMAALTEP [A24P], the protein stability index was 2.06.

With FSDPSQSDPETKDFWLNMAALTEC [A24C], the protein stability index was 2.36.

Take FSDPSQSDPETKDFWLNMAALTEQ [A24Q]: the protein stability index was 3.27.

As to FSDPSQSDPETKDFWLNMAALTEM [A24M], the protein stability index was 2.62.

Consider FSDPSQSDPETKDFWLNMAALTES [A24S], for which the protein stability index was determined as 3.4.

On to FSDPSQSDPETKDFWLNMAALTER [A24R], for which the protein stability index worked out at 3.38.

As for FSDPSQSDPETKDFWLNMAALTEY [A24Y], the protein stability index turned out to be 2.29.

With FSDPSQSDPETKDFWLNMAALTEV [A24V], the protein stability index came to 1.82.

For the variant FSDPSQSDPETKDFWLHMAALTEA [N17H], the protein stability index turned out to be 2.74.

In the case of FSDPSQSDPETKDFWLPMAALTEA [N17P], the protein stability index worked out at 1.94.

In the case of FSDPSQSDPETKAFWLNMAALTEA [D13A], the protein stability index stood at 2.09.

Turning to FSDPSQSDPETKVFWLNMAALTEA [D13V], the protein stability index was determined as 1.65.

For FSDPSQSDPETKKFWLNMAALTEA [D13K], the protein stability index worked out at 2.33.

FSDPSQSDPETKWFWLNMAALTEA [D13W]: the protein stability index was found to be 1.65.

Take FSDPSQSDPETKIFWLNMAALTEA [D13I]: the protein stability index turned out to be 1.75.

Turning to FSDPSQSDPETKFFWLNMAALTEA [D13F], the protein stability index is 1.88.

For FSDPSQSDPETKRFWLNMAALTEA [D13R], the protein stability index is 1.97.

In the case of FSDPSQSDPETKGFWLNMAALTEA [D13G], the protein stability index stood at 2.96.

For the variant FMDPSQSDPETKDFWLNMAALTEA [S2M], the protein stability index stood at 3.5.

On to FNDPSQSDPETKDFWLNMAALTEA [S2N], for which the protein stability index was found to be 1.53.

For the variant FADPSQSDPETKDFWLNMAALTEA [S2A], the protein stability index turned out to be 1.7.

FWDPSQSDPETKDFWLNMAALTEA [S2W]: the protein stability index is 2.93.

With FLDPSQSDPETKDFWLNMAALTEA [S2L], the protein stability index came to 2.65.

Take FVDPSQSDPETKDFWLNMAALTEA [S2V]: the protein stability index amounted to 1.93.

Take FPDPSQSDPETKDFWLNMAALTEA [S2P]: the protein stability index amounted to 3.02.

With FSDPSQSDPETKDFCLNMAALTEA [W15C], the protein stability index came out at 4.62.

In the case of FSDPSQSDPETKDFGLNMAALTEA [W15G], the protein stability index was 4.65.

Consider FSDPSQSDPETKDFMLNMAALTEA [W15M], for which the protein stability index was determined as 4.48.

Take FSDPSQSDPETKDFPLNMAALTEA [W15P]: the protein stability index stood at 4.66.

On to FSDPSQSDPETKDFTLNMAALTEA [W15T], for which the protein stability index was 4.38.

Consider FSDPSQSDPETKDFRLNMAALTEA [W15R], for which the protein stability index was 4.68.

In the case of FSDPSQSDPETKDFQLNMAALTEA [W15Q], the protein stability index stood at 4.45.

FSDPSQSDPETKDFILNMAALTEA [W15I]: the protein stability index was 4.43.

As for FSDPSQSDPETKDFALNMAALTEA [W15A], the protein stability index stood at 4.88.

In the case of FSDPSQSDPETKDFYLNMAALTEA [W15Y], the protein stability index is 4.38.

On to FSDPSQSDPETKDFVLNMAALTEA [W15V], for which the protein stability index worked out at 4.77.

FSDPSQSDPEAKDFWLNMAALTEA [T11A]: the protein stability index was 3.11.

In the case of FSDPSQSDPECKDFWLNMAALTEA [T11C], the protein stability index amounted to 2.92.

Turning to FSDPSQSDPESKDFWLNMAALTEA [T11S], the protein stability index amounted to 2.98.

For FSDPSQSDPEDKDFWLNMAALTEA [T11D], the protein stability index came to 4.34.

With FSDPSQSDPEMKDFWLNMAALTEA [T11M], the protein stability index stood at 2.31.

For the variant FSDPSQSDPERKDFWLNMAALTEA [T11R], the protein stability index was 2.69.

As to FSDPSQSDPEPKDFWLNMAALTEA [T11P], the protein stability index came out at 3.38.

With FSDPSQSDPETKDFWGNMAALTEA [L16G], the protein stability index amounted to 2.41.

As to FSDPSQSDPETKDFWENMAALTEA [L16E], the protein stability index was found to be 4.87.

With FSDPSQSDPETKDFWANMAALTEA [L16A], the protein stability index turned out to be 2.87.

FSDPSQSDPETKDFWSNMAALTEA [L16S]: the protein stability index came to 2.32.

On to FSDPSQSDPETKDFWFNMAALTEA [L16F], for which the protein stability index came out at 2.41.

On to FSDPSQSKPETKDFWLNMAALTEA [D8K], for which the protein stability index was 2.32.

FSDPSQSIPETKDFWLNMAALTEA [D8I]: the protein stability index worked out at 2.9.

As to FSDPSQSAPETKDFWLNMAALTEA [D8A], the protein stability index came out at 2.62.

On to FSDPSQSQPETKDFWLNMAALTEA [D8Q], for which the protein stability index is 2.24.

On to FSDPSQSEPETKDFWLNMAALTEA [D8E], for which the protein stability index stood at 3.1.

As to FSDPSQSPPETKDFWLNMAALTEA [D8P], the protein stability index was determined as 2.93.

FSDPSQSDPETQDFWLNMAALTEA [K12Q]: the protein stability index was 3.43.

FSDPSQSDPETYDFWLNMAALTEA [K12Y]: the protein stability index came out at 2.97.

As to FSDPSQSDPETEDFWLNMAALTEA [K12E], the protein stability index was found to be 3.6.

As for FSDPSQSDPETHDFWLNMAALTEA [K12H], the protein stability index amounted to 3.2.

On to FSDPSQSDPHTKDFWLNMAALTEA [E10H], for which the protein stability index is 1.97.

As for FSDPSQSDPNTKDFWLNMAALTEA [E10N], the protein stability index worked out at 1.9.

As for FSDPSQSDPMTKDFWLNMAALTEA [E10M], the protein stability index worked out at 1.94.

As to FSDPSQSDPWTKDFWLNMAALTEA [E10W], the protein stability index was determined as 1.83.

On to FSDPSQSDPATKDFWLNMAALTEA [E10A], for which the protein stability index came out at 2.5.

In the case of FSDPSQSDPTTKDFWLNMAALTEA [E10T], the protein stability index was found to be 2.12.

Consider FSDPSQSDPQTKDFWLNMAALTEA [E10Q], for which the protein stability index was 2.54.

On to FSDPSTSDPETKDFWLNMAALTEA [Q6T], for which the protein stability index turned out to be 2.68.

For the variant FSDPSMSDPETKDFWLNMAALTEA [Q6M], the protein stability index was 2.66.
